# ± gives the uncertainty stated by the source.
# Assay: self-splicing fitness, log relative to wild type (ln ratio); higher = more splicing; Tetrahymena group I intron in knt gene, E. coli kanamycin selection, DiMSum; sequences stand for … in CUCUCU…GGAGGGAAAAGUUAUCAGGCAUGCACCUGGUAGCUAGUCUUUAAACCAAUAGAUUGCAUCGGUUUAAAAGGCAAGACCGUCAAAUUGCGGGAAAGGGGUCAACAGCCGUUCAGUACCAAGUCUCAGGGGAAACUUUGAGAUGGCCUUGCAAAGGGUAUGGUAAUAAGCUGACGGACAUGGUCCUAACCACGCAGCCAAGUCCUAAGUCAACAGAUCUUCUGUUGAUAUGGAUGCAGUUCACAGACUAAAUGUCGGUCGGGGAAGAUGUAUUCUUCUCAUAAGAUAUAGUCGGACCUCUCCUUAAUGGGAGCUAGCGGAUGAAGUGAUGCAACACUGGAGCCGCUGGGAACUAAUUUGUAUGCGAAAGUAUAUUGAUUAGUUUUGGAGUACUCGUGGUCG
# In short: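 Six replicate transformations of E. coli BL21(DE3) with a pET-22b(+) library were grown overnight at 37°C or 30°C. The library randomised all eight P1ex-region intron nucleotides, the intron lying in the knt kanamycin-resistance gene, and plates were LB agar with or without 25 μg/mL kanamycin plus 100 μg/mL carbenicillin, 50 μM IPTG and 0.2% rhamnose. Pooled colonies were amplicon-sequenced on an Illumina HiSeq 2500, and fitness is the DiMSum error-weighted combination of wild-type-normalised replicate fold changes, kanamycin versus none.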
Sequence,self-splicing fitness (ln) (30 °C),self-splicing fitness (ln) (37 °C)
UAUUAGCAAUAUUACGUAAA,-2.63 ± 0.25,-1.09 ± 0.38
AUGAAGCAAUAUUACGUGGA,-2.73 ± 0.096,-1.45 ± 0.11
UUACAGCAAUAUUACGCCUA,0.181 ± 0.11,0.542 ± 0.12
UUAGAGCAAUAUUACGUGUA,-3.04 ± 0.18,-1.83 ± 0.17
GUACAGCAAUAUUACGUUAG,-2.37 ± 0.15,-1.74 ± 0.17
UGUUAGCAAUAUUACGGCAC,-1.58 ± 0.47,-1.51 ± 0.43
AGAGAGCAAUAUUACGCGUC,-2.64 ± 0.36,-0.28 ± 0.28
CCCUAGCAAUAUUACGGCCA,-2.88 ± 0.39,-2.19 ± 0.26
GCUGAGCAAUAUUACGAGUU,-2.73 ± 0.13,-0.949 ± 0.12
AUAUAGCAAUAUUACGCUUA,-1.53 ± 0.16,-0.0426 ± 0.15
AAGUAGCAAUAUUACGCGCG,-0.335 ± 0.087,-0.184 ± 0.12
UAUAAGCAAUAUUACGGGAA,-2.77 ± 0.2,-1.5 ± 0.18
AAGGAGCAAUAUUACGGGGG,-2.94 ± 0.19,-0.0467 ± 0.21
UAAGAGCAAUAUUACGGAGG,-3.41 ± 0.32,-1.95 ± 0.46
CAGUAGCAAUAUUACGAAGU,-0.925 ± 0.18,-1.82 ± 0.27
GCUGAGCAAUAUUACGUAGU,-2.86 ± 0.16,-1.71 ± 0.15
AUAAAGCAAUAUUACGCAGA,-1.87 ± 0.093,-0.796 ± 0.11
CGACAGCAAUAUUACGUUUU,-3.62 ± 0.15,-1.54 ± 0.11
GACGAGCAAUAUUACGCAGC,-3.4 ± 0.27,-1.69 ± 0.28
UGCCAGCAAUAUUACGGCUG,-3.47 ± 0.15,-2.17 ± 0.16
GGCAAGCAAUAUUACGCUCA,-1.21 ± 0.13,0.321 ± 0.17
UAGUAGCAAUAUUACGCGUG,-1.03 ± 0.12,-0.705 ± 0.15
ACGCAGCAAUAUUACGCCAU,-2.86 ± 0.17,-2.05 ± 0.17
UCUAAGCAAUAUUACGAAUC,,-2.3 ± 0.45
UAUAAGCAAUAUUACGUUAG,-2.08 ± 0.14,-0.812 ± 0.14
UGUAAGCAAUAUUACGCGCC,-1.18 ± 0.1,-0.53 ± 0.13

Sequence,self-splicing fitness (ln) (30 °C),self-splicing fitness (ln) (37 °C)
AGCGAGCAAUAUUACGGAUA,-2.18 ± 0.39,-2.17 ± 0.34
GUGGAGCAAUAUUACGCUUC,-3.26 ± 0.2,-3.69 ± 0.42
AAAUAGCAAUAUUACGCGAC,-2.2 ± 0.17,-1.03 ± 0.2
GAAAAGCAAUAUUACGUUCC,-3.72 ± 0.26,-2.95 ± 0.24
UGCGAGCAAUAUUACGCAGA,-3.13 ± 0.37,-1.84 ± 0.38
CGCUAGCAAUAUUACGGCUG,-1.13 ± 0.12,-0.227 ± 0.14
GGAAAGCAAUAUUACGACUC,0.0221 ± 0.11,-0.214 ± 0.19
CAGUAGCAAUAUUACGGCUU,-1.58 ± 0.16,-1.01 ± 0.14
GGAAAGCAAUAUUACGACUA,-0.62 ± 0.12,-0.129 ± 0.12
UAGUAGCAAUAUUACGCUUA,-1.15 ± 0.14,-0.806 ± 0.13
GCCAAGCAAUAUUACGGAGC,-3.32 ± 0.1,-2.38 ± 0.12
UGCCAGCAAUAUUACGGUCG,-1.14 ± 0.068,-0.0276 ± 0.075
ACAGAGCAAUAUUACGAUGC,-2.74 ± 0.14,-2.47 ± 0.29
UAGGAGCAAUAUUACGCGAC,,-1.74 ± 0.38
AAGGAGCAAUAUUACGCACU,-1.53 ± 0.17,-0.454 ± 0.18
CAUUAGCAAUAUUACGGUUA,-2.35 ± 0.28,-0.486 ± 0.17
UAAGAGCAAUAUUACGAGUG,-3.74 ± 0.23,-1.16 ± 0.22
GUUUAGCAAUAUUACGAUGU,-1.16 ± 0.11,-0.261 ± 0.14
UAACAGCAAUAUUACGAGGU,-4.14 ± 0.23,-2.58 ± 0.23
AUUGAGCAAUAUUACGCCUG,-2.27 ± 0.33,
GCAUAGCAAUAUUACGGGAG,-2.96 ± 0.19,-0.949 ± 0.12
CUGUAGCAAUAUUACGAACC,-2.02 ± 0.47,
GCCGAGCAAUAUUACGCUAG,-2.67 ± 0.17,-3.17 ± 0.29
ACCUAGCAAUAUUACGAGGA,-2.16 ± 0.12,-0.9 ± 0.12
CAAUAGCAAUAUUACGGUCG,-0.0402 ± 0.066,0.0285 ± 0.087
AGGUAGCAAUAUUACGCGCC,-2.6 ± 0.032,-1.56 ± 0.043

Sequence,self-splicing fitness (ln) (30 °C),self-splicing fitness (ln) (37 °C)
AUGCAGCAAUAUUACGGUCU,-0.211 ± 0.078,0.0315 ± 0.091
AGGCAGCAAUAUUACGACAG,-1.61 ± 0.18,-1.54 ± 0.23
CACAAGCAAUAUUACGGUCC,-2.99 ± 0.32,-1.99 ± 0.27
AGCCAGCAAUAUUACGAAUA,-3.25 ± 0.27,-2.94 ± 0.3
UCAUAGCAAUAUUACGUGGA,-2.02 ± 0.11,-1.24 ± 0.093
CGCUAGCAAUAUUACGACAU,-3.31 ± 0.022,-2.06 ± 0.036
AUAAAGCAAUAUUACGGUGA,-0.436 ± 0.09,-0.422 ± 0.11
GAAUAGCAAUAUUACGUGAU,-3.48 ± 0.17,-1.27 ± 0.11
GAUUAGCAAUAUUACGGUAC,-2.14 ± 0.37,-0.994 ± 0.22
UGAGAGCAAUAUUACGCUUU,-4.15 ± 0.29,-1.96 ± 0.17
CACUAGCAAUAUUACGCUCG,-0.657 ± 0.073,0.214 ± 0.089
UGGAAGCAAUAUUACGAACA,-0.687 ± 0.13,-0.937 ± 0.17
UUGAAGCAAUAUUACGGGCU,-3.02 ± 0.14,-1.16 ± 0.1
AAAAAGCAAUAUUACGGACC,-0.351 ± 0.092,-0.225 ± 0.11
UUUUAGCAAUAUUACGGCGU,-1.89 ± 0.21,-0.915 ± 0.45
UAACAGCAAUAUUACGGGUA,-0.895 ± 0.061,0.0689 ± 0.074
AGGUAGCAAUAUUACGUGUG,-2.883 ± 0.016,-1.88 ± 0.033
CGGCAGCAAUAUUACGAAUA,,-2.07 ± 0.27
CGUGAGCAAUAUUACGUGCU,-3.78 ± 0.29,-2.97 ± 0.34
GAUCAGCAAUAUUACGUGAG,-0.0667 ± 0.052,0.101 ± 0.074
GGUUAGCAAUAUUACGCUAA,-1.98 ± 0.41,
UGACAGCAAUAUUACGUACC,-1.78 ± 0.12,-0.302 ± 0.14
ACCAAGCAAUAUUACGAUGG,-1.76 ± 0.076,-0.995 ± 0.12
GCCCAGCAAUAUUACGCGAA,-2.09 ± 0.071,-0.554 ± 0.072
CAUGAGCAAUAUUACGAGUA,-2.36 ± 0.21,-1.12 ± 0.24

# Reference: the supplement of paper PMC7877785
